Measured values published in paper PMC12757645, “Bacillus subtilis encodes three N-acetylcysteine deacetylase enzymes that can catalyze the final step in S-(2-succino)cysteine breakdown” (The Journal of Biological Chemistry, 2025).

Substrate: CC(=O)N[C@@H](CS)C(=O)O
Experiment: purified protein
Type: biochemical, Bacillus subtilis
Details: 50 mM potassium phosphate pH 7.8, 5 mM CoCl2, 37 °C

Protein | Km [µM] | Vmax [µmol/min/mg] | kcat [s⁻¹] | kcat/Km [M⁻¹ s⁻¹]
YtnL (Bacillus subtilis subsp. subtilis str. 168) (protein) MSLDYWRNIEGSYPYQTTGNDILTLKEESNPVNLSTLEKQLIGIRRHLHQYPELSKEEFETTAFIKKCLKEKGIQIRPTALKTGVFADIAGESEGPAIALRADIDALPIEEKTGLPYASKHKGIMHACGHDFHTAALLGAAFLLKENQDSLKGKIRLLFQPAEEAGAGATKVIEDGQLDGIDAVIGLHNKPDIAVGTVGLKTGPLMAAVDRFKVEIEGKGAHAALPHNGFDPIIGASQLIVALQTIVSRNVNPLQSAILTVGKINGGSTWNVIPDTVVIEGTVRTFDSEVRNQVKQRFFAVTEQISAAFSLKANVKWHSGPPPLCNDEAITGLVRDAAHKAKLQVIDPAPSTAGEDFAYYLEHIPGSFAFFGTDGDHDWHHPAFTIDETAIIKASYFLYESAKRLLDSNEESKISD | 855.0 ± 339.2 | 43 | 34.2 ± 3.8 | 40000 ± 11000
YhaA (Bacillus subtilis subsp. subtilis str. 168) (protein) MSISTLQKEINKQLDGCFEEMVEIRRHFHMYPELSFQEEKTAAFIASYYESLGVPIRTNVGGRGVLANIEGSEPGPTVALRADFDALPIQDEKDVPYASKVPGVMHACGHDGHTAALLAVAKVLHQNRHELKGTFVMIHQHAEEYYPGGAKPMIDDGCLENTDVIFGTHLWATEPLGTILCRPGAVMAAADRFTIKVFGKGGHGAHPHDTKDAVLIGSQIVSSLQHIVSRKVNPIQSAVISTGSFIADNPFNVIADQAVLIGTARSFDENVRDILEKEIEAVVKGICSMHGASYEYTYEQGYPAVVNHPAETNHLVSTAKNTEGVQQVIDGEPQMGGEDFAYYLQNVKGTFFFTGAAPEQPERVYSHHHPKFDINEKAMLTAAKVLAGAAITYHQL | 895.8 ± 338.1 | 24.7 | 18.8 ± 1.3 | 21000 ± 3700
ScmP (Bacillus subtilis subsp. subtilis str. 168) (protein) MADKAFHTRLINMRRDLHEHPELSFQEVETTKKIRRWLEEEQIEILDVPQLKTGVIAEIKGREDGPVIAIRADIDALPIQEQTNLPFASKVDGTMHACGHDFHTASIIGTAMLLNQRRAELKGTVRFIFQPAEEIAAGARKVLEAGVLNGVSAIFGMHNKPDLPVGTIGVKEGPLMASVDRFEIVIKGKGGHAGIPNNSIDPIAAAGQIISGLQSVVSRNISSLQNAVVSITRVQAGTSWNVIPDQAEMEGTVRTFQKEARQAVPEHMRRVAEGIAAGYGAQAEFKWFPYLPSVQNDGTFLNAASEAAARLGYQTVHAEQSPGGEDFALYQEKIPGFFVWMGTNGTEEWHHPAFTLDEEALTVASQYFAELAVIVLETIK | 494.5 ± 67.4 | 112 | 82.5 ± 9.2 | 
